The record followed here is patent US20060177826A1 (SERUM BIOMEDICAL INSTITUTE, published 2006).

This experiment deals with T1, human beta-FSH subunit (SDK-X1X2 expression product) (human, UniProt P01225 19-129).
T1 construct: Expressed from pTPKBFSH in co-transfected COS-7L and CHO-S cells and tested as secreted protein in the culture supernatant; also called β subunit of human FSH
Put plainly: FSH-IRMA sandwich immunoradiometric assay (one mAb for the alpha subunit, one for the beta subunit) on supernatant of co-transfected cells; detects only the complete alpha and beta complex. On the procedure:
Following transfection, the cells were cultured in a selective medium containing 1000 μg/ml Geneticine and 400 μg/ml Blasticidin for 7 days. Geneticine-Blasticidine-resistant cells were transferred in a new culture medium containing Geneticine (200 μg/ml) and Blasticidin (200 μg/mL), and cultured to a cell density of 10⁶ cells/ml. The supernatant of this culture was than tested for the presence of the multisubunit (alpha subunit and beta subunit non-covalently associated) FSH complex.
The presence of the alpha and beta FSH complex was detected using the BIOSOURCE FSH-IRMA Kit (Biosource Europe S.A., Cat # KIP0841-KIP0844), an immunoradiometric assay kit for the quantitation of Follicle Stimulating Hormone (FSH). This FSH-IRMA assay is based on the use of two monoclonal antibodies, one specific for the alpha subunit of FSH and one for the beta subunit of FSH. Thus this assay only detects the complete alpha and beta FSH complex. The supernatant of pLenti6/V5-glycalA and the pTPKBFSH co-transfected cells was tested using the FSH-IRMA kit according to manufacturer's instructions.

T1 sequence (P01225 19-129 limits assumed): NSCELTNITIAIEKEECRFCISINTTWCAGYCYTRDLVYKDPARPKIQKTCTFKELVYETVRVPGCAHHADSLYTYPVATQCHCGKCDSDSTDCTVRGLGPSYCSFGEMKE

B1: human alpha-FSH subunit (glycalA expression product) (ligand)
chain: not shown
notes: Expressed from pLenti6/V5-glycalA in co-transfected COS-7L and CHO-S cells and tested as secreted protein in the culture supernatant; also called alpha subunit of FSH
In the case of B1, the binding result was “binds”.
